This experiment addresses Cas9 from Streptococcus pyogenes (SpyCas9) (Streptococcus pyogenes) (UniProt Q99ZW2).

Where only a bound is given, the exact number is not on record here.

For AcrIIA25.1 (natural protein), the in vitro DNA cleavage by SpyCas9 RNP (256 nM), Acr titrated 0-8192 nM: Acr concentration that inhibits SpyCas9 was 512 nM.

AcrIIA27 (natural protein) displayed an in vitro DNA cleavage by SpyCas9 RNP (256 nM), Acr titrated 0-8192 nM: Acr concentration that inhibits SpyCas9 above 2050 nM.

Substance AcrIIA26 (natural protein) came in with an in vitro DNA cleavage by SpyCas9 RNP (256 nM), Acr titrated 0-8192 nM: Acr concentration that inhibits SpyCas9 above 2050 nM.

The substance AcrIIA28 (natural protein) registered an in vitro DNA cleavage by SpyCas9 RNP (256 nM), Acr titrated 0-8192 nM: Acr concentration that inhibits SpyCas9 of 512 nM.

Turning to AcrIIA32.1 (natural protein), the in vitro DNA cleavage by SpyCas9 RNP (256 nM), Acr titrated 0-8192 nM: Acr concentration that inhibits SpyCas9 was determined as 512 nM.

The values are drawn from article PMC8934645.
